Biological target: IL-13 (Homo sapiens (Human), UniProt P35225 35-146, limits assumed)
Assay: Biacore

IL-13, sequence (P35225 35-146 limits assumed): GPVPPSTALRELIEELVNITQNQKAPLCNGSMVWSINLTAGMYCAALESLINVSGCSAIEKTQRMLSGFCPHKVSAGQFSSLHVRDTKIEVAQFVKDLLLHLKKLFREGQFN

Kd [nM] | koff [s⁻¹] | kon [M⁻¹ s⁻¹] | Binder
0.044 | 4.7e-05 | 1.06e+06 | M453 (antibody, V domains shown, anti-IL-13, human IgG1) VH: QVTLKESGPVLVKPTETLTLTCTVSGFSLSTYGMGVGWIRQPPGKALEWLAHIWWDDVKRYNPALKSRLTISKDTSKSQVVLTMTNMDPVDTATYYCARMGSDYDVWFDYWGQGTLVTVSS VL: EIVLTQSPATLSLSPGERATLSCRASKSISKYLAWYQQKPGQAPRLLIYSGSTLQSGIPARFSGSGSGTDFTLTISSLEPEDFAVYYCQQHDWGPYTFGQGTKLEIK
0.262 | 0.000291 | 1.11e+06 | M445 (antibody, V domains shown, anti-IL-13, human IgG1) VH: QVTLKESGPVLVKPTETLTLTCTVSGFSLSTYGMGVGWIRQPPGKALEWLAHIWWDDVKRYNPALKSRLTISKDTSKSQVVLTMTNMDPVDTATYYCARMGSDYDVWFDYWGQGTLVTVSS VL: EIVLTQSPATLSLSPGERATLSCRASKSISKYLAWYQQKPGQAPRLLIYSGSTLQSGIPARFSGSGSGTDFTLTISSLEPEDFAVYYCQQHLLGPYTFGQGTKLEIK
0.186 | 0.000303 | 1.63e+06 | M455 (antibody, V domains shown, anti-IL-13, human IgG1) VH: QVTLKESGPVLVKPTETLTLTCTVSGFSLSTYGMGVGWIRQPPGKALEWLAHIWWDDVKRYNPALKSRLTISKDTSKSQVVLTMTNMDPVDTATYYCARMGSDYDVWFDYWGQGTLVTVSS VL: EIVLTQSPATLSLSPGERATLSCRASKSISKYLAWYQQKPGQAPRLLIYSGSTLQSGIPARFSGSGSGTDFTLTISSLEPEDFAVYYCQQHNEAPYTFGQGTKLEIK
0.345 | 0.000465 | 1.35e+06 | M446 (antibody, V domains shown, anti-IL-13, human IgG1) VH: QVTLKESGPVLVKPTETLTLTCTVSGFSLSTYGMGVGWIRQPPGKALEWLAHIWWDDVKRYNPALKSRLTISKDTSKSQVVLTMTNMDPVDTATYYCARMGSDYDVWFDYWGQGTLVTVSS VL: EIVLTQSPATLSLSPGERATLSCRASKSISKYLAWYQQKPGQAPRLLIYSGSTLQSGIPARFSGSGSGTDFTLTISSLEPEDFAVYYCQQHVGGPYTFGQGTKLEIK
0.233 | 0.00027 | 1.16e+06 | M452 (antibody, V domains shown, anti-IL-13, human IgG1) VH: QVTLKESGPVLVKPTETLTLTCTVSGFSLSTYGMGVGWIRQPPGKALEWLAHIWWDDVKRYNPALKSRLTISKDTSKSQVVLTMTNMDPVDTATYYCARMGSDYDVWFDYWGQGTLVTVSS VL: EIVLTQSPATLSLSPGERATLSCRASKSISKYLAWYQQKPGQAPRLLIYSGSTLQSGIPARFSGSGSGTDFTLTISSLEPEDFAVYYCQQHLNGPYTFGQGTKLEIK
0.092 | 0.000127 | 1.39e+06 | M448 (antibody, V domains shown, anti-IL-13, human IgG1) VH: QVTLKESGPVLVKPTETLTLTCTVSGFSLSTYGMGVGWIRQPPGKALEWLAHIWWDDVKRYNPALKSRLTISKDTSKSQVVLTMTNMDPVDTATYYCARMGSDYDVWFDYWGQGTLVTVSS VL: EIVLTQSPATLSLSPGERATLSCRASKSISKYLAWYQQKPGQAPRLLIYSGSTLQSGIPARFSGSGSGTDFTLTISSLEPEDFAVYYCQQHSHGPYTFGQGTKLEIK
0.088 | 7.8e-05 | 880000 | M443 (antibody, V domains shown, anti-IL-13, human IgG1) VH: QVTLKESGPVLVKPTETLTLTCTVSGFSLSTYGMGVGWIRQPPGKALEWLAHIWWDDVKRYNPALKSRLTISKDTSKSQVVLTMTNMDPVDTATYYCARMGSDYDVWFDYWGQGTLVTVSS VL: EIVLTQSPATLSLSPGERATLSCRASKSISKYLAWYQQKPGQAPRLLIYSGSTLQSGIPARFSGSGSGTDFTLTISSLEPEDFAVYYCQQHSWGPYTFGQGTKLEIK
0.063 | 0.000107 | 1.71e+06 | M450 (antibody, V domains shown, anti-IL-13, human IgG1) VH: QVTLKESGPVLVKPTETLTLTCTVSGFSLSTYGMGVGWIRQPPGKALEWLAHIWWDDVKRYNPALKSRLTISKDTSKSQVVLTMTNMDPVDTATYYCARMGSDYDVWFDYWGQGTLVTVSS VL: EIVLTQSPATLSLSPGERATLSCRASKSISKYLAWYQQKPGQAPRLLIYSGSTLQSGIPARFSGSGSGTDFTLTISSLEPEDFAVYYCQQHDPGPYTFGQGTKLEIK
0.754 | 0.000944 | 1.25e+06 | H2L6 HFS variant (antibody, V domains shown, IgG1; also called IL13-62) VH: QVTLKESGPVLVKPTETLTLTCTVSGFSLSTYGMGVGWIRQPPGKALEWLAHIWWDDVKRYNPALKSRLTISKDTSKSQVVLTMTNMDPVDTATYYCARMGSDYDVWFDYWGQGTLVTVSS VL: EIVLTQSPATLSLSPGERATLSCRASKSISKYLAWYQQKPGQAPRLLIYSGSTLQSGIPARFSGSGSGTDFTLTISSLEPEDFAVYYCQQHNEYPYTFGQGTKLEIK
0.184 | 0.00022 | 1.2e+06 | M444 (antibody, V domains shown, anti-IL-13, human IgG1) VH: QVTLKESGPVLVKPTETLTLTCTVSGFSLSTYGMGVGWIRQPPGKALEWLAHIWWDDVKRYNPALKSRLTISKDTSKSQVVLTMTNMDPVDTATYYCARMGSDYDVWFDYWGQGTLVTVSS VL: EIVLTQSPATLSLSPGERATLSCRASKSISKYLAWYQQKPGQAPRLLIYSGSTLQSGIPARFSGSGSGTDFTLTISSLEPEDFAVYYCQQHVWGPYTFGQGTKLEIK
0.089 | 9e-05 | 1.02e+06 | M449 (antibody, V domains shown, anti-IL-13, human IgG1) VH: QVTLKESGPVLVKPTETLTLTCTVSGFSLSTYGMGVGWIRQPPGKALEWLAHIWWDDVKRYNPALKSRLTISKDTSKSQVVLTMTNMDPVDTATYYCARMGSDYDVWFDYWGQGTLVTVSS VL: EIVLTQSPATLSLSPGERATLSCRASKSISKYLAWYQQKPGQAPRLLIYSGSTLQSGIPARFSGSGSGTDFTLTISSLEPEDFAVYYCQQHESGPYTFGQGTKLEIK
0.065 | 7.4e-05 | 1.13e+06 | M454 (antibody, V domains shown, anti-IL-13, human IgG1) VH: QVTLKESGPVLVKPTETLTLTCTVSGFSLSTYGMGVGWIRQPPGKALEWLAHIWWDDVKRYNPALKSRLTISKDTSKSQVVLTMTNMDPVDTATYYCARMGSDYDVWFDYWGQGTLVTVSS VL: EIVLTQSPATLSLSPGERATLSCRASKSISKYLAWYQQKPGQAPRLLIYSGSTLQSGIPARFSGSGSGTDFTLTISSLEPEDFAVYYCQQQDYGPYTFGQGTKLEIK
0.055 | 5.4e-05 | 980000 | M447 (antibody, V domains shown, anti-IL-13, human IgG1) VH: QVTLKESGPVLVKPTETLTLTCTVSGFSLSTYGMGVGWIRQPPGKALEWLAHIWWDDVKRYNPALKSRLTISKDTSKSQVVLTMTNMDPVDTATYYCARMGSDYDVWFDYWGQGTLVTVSS VL: EIVLTQSPATLSLSPGERATLSCRASKSISKYLAWYQQKPGQAPRLLIYSGSTLQSGIPARFSGSGSGTDFTLTISSLEPEDFAVYYCQQQDIGPYTFGQGTKLEIK
0.177 | 0.000333 | 1.88e+06 | M451 (antibody, V domains shown, anti-IL-13, human IgG1) VH: QVTLKESGPVLVKPTETLTLTCTVSGFSLSTYGMGVGWIRQPPGKALEWLAHIWWDDVKRYNPALKSRLTISKDTSKSQVVLTMTNMDPVDTATYYCARMGSDYDVWFDYWGQGTLVTVSS VL: EIVLTQSPATLSLSPGERATLSCRASKSISKYLAWYQQKPGQAPRLLIYSGSTLQSGIPARFSGSGSGTDFTLTISSLEPEDFAVYYCQQPLDVPYTFGQGTKLEIK

From patent publication US20100261620A1 (published 2010)
